Assay [1] addresses T1, Baboon EL-C2 tag (baboon, UniProt Q9Y5X9 21-500 (human entry), limits assumed).
T1 chain: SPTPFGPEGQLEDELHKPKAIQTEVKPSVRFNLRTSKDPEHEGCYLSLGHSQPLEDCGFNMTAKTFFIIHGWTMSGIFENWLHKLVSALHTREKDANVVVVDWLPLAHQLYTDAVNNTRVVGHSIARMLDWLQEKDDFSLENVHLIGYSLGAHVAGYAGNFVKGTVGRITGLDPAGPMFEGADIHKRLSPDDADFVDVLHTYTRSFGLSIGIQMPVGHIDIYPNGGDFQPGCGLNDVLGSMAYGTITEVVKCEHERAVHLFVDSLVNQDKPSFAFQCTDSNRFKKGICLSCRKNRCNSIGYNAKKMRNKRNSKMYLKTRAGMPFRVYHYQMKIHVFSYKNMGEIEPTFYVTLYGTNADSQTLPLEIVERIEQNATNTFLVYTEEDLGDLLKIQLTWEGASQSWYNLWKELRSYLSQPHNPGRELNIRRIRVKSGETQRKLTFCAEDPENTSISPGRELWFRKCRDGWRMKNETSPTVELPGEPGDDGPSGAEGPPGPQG
Kind of assay: cell-based or functional assay.

Assay [2] deals with T2, cynomolgus monkey EL-C2 tag (cynomolgus monkey, UniProt Q9Y5X9 21-500 (human entry), limits assumed).
T2 chain: T1 chain with E12A, E141G
As to the kind of experiment: cell-based or functional assay.

In assay [3] the target is T3, rabbit EL-C2 tag (rabbit).
T3 chain: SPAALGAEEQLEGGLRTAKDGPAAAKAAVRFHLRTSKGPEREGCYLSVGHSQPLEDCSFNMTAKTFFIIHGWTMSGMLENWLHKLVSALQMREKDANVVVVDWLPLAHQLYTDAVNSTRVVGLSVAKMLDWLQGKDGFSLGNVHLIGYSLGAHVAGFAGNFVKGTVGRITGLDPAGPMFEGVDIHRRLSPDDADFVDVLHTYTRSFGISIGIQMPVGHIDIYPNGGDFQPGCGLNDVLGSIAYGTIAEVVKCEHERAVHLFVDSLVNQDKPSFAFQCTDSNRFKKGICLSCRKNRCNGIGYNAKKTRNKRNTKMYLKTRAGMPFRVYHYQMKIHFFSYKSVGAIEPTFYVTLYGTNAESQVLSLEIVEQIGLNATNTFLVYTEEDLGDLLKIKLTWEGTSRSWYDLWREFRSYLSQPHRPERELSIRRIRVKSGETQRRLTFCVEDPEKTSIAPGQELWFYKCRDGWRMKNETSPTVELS
Kind of assay: cell-based or functional assay.

Assay [4] addresses T1, Baboon EL-C2 tag. Kind of assay: ELISA-type titration, A450 against antibody concentration; protocol not described in the text.
The target in assay [5] is T2, cynomolgus monkey EL-C2 tag. Described as above.
Assay [6] addresses T3, rabbit EL-C2 tag. Described as above.
For assay [7], the target named is T1, Baboon EL-C2 tag. Kind of assay: Biacore SPR; EL heparin extract captured by anti-C2-tag antibody on CM5, antibody as analyte, bivalent fit. As to the method: (§1) The binding affinities of anti-EL antibodies were measured using Biacore. Anti-C2-tag antibody was immobilized on a sensor chip CM5 (GE HealthCare) using amine-coupling and baboon EL heparin extract or cynomolgus monkey heparin extract diluted with HBS-P (GE Healthcare) was added and EL were captured on the sensor chip. Then anti-EL antibodies diluted with HBS-P were added and the binding affinities were calculated by bivalent fitting of BIAevaluation software (FIG. 9A-G).

Assay [8] deals with T2, cynomolgus monkey EL-C2 tag. Described as above. As to the method: as §1
The target of assay [9] is T1, Baboon EL-C2 tag. Kind of assay: Biacore SPR; EL captured by anti-C2-tag antibody, antibody as analyte, bivalent fit; column head prints nM, kd/ka gives M. As to the method:
as §1

Assay [10] has as its target T2, cynomolgus monkey EL-C2 tag. The description is as above. As to the method:
as §1

The target of assay [11] is T4, human EL[331-459]-mouse EL-C2 tag (human/mouse chimera, UniProt Q9WVG5 21-500 (mouse entry)).
T4 chain: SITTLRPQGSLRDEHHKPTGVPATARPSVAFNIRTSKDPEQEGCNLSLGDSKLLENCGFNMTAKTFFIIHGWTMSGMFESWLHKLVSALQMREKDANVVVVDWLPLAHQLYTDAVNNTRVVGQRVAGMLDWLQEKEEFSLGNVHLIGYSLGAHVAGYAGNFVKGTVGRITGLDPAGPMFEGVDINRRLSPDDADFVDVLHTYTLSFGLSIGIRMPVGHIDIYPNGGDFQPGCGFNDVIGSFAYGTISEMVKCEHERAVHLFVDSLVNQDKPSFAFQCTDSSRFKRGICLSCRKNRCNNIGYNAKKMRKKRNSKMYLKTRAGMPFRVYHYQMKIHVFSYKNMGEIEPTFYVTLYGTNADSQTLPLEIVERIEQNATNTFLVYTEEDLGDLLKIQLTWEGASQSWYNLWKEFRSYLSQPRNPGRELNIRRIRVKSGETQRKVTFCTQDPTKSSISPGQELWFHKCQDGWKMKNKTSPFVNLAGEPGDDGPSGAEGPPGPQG
As to the kind of experiment: cell-based or functional assay.

Assay [12] has as its target T5, human EL-411-459 fragment (human).
T5 construct: Used as HEK293 lysate
T5 chain: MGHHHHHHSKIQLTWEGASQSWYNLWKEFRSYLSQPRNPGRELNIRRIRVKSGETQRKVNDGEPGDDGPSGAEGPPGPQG
As to the kind of experiment: sandwich ELISA with human EL fragment lysate, as Example 10.

Assay [13] has as its target T1, Baboon EL-C2 tag. As to the kind of experiment: ELISA-type titration, A450 against antibody concentration; protocol not described in the text.
For assay [14], the target named is T2, cynomolgus monkey EL-C2 tag. The assay is described as above.
The target of assay [15] is T4, human EL[331-459]-mouse EL-C2 tag. Described as above.
Assay [16] concerns the target T3, rabbit EL-C2 tag. Described as above.
Assay [17] addresses T2, cynomolgus monkey EL-C2 tag. The description is as above.
Assay [18] has as its target T3, rabbit EL-C2 tag. The description is as above.

Changes are numbered by the printed parent chain. Read-outs that look alike come from different tables or passages of the source.

B1: 8F5 antibody (antibody, IgG2a, V domains shown)
VH: QVTLKESGPGILQPSQTLSLTCSFSGFSLSTSNMGVGWIRQPSGKGLEWLAHIWWNDYKYYNTALKSRLTISKDTSNNQVFLKIASLDTADTATYYCARIGGGTPLDYWGQGTSLTVSS
VL: DIQMAQSPSSLSASLGGKVTITCKASQDIHTYIAWYQHKPGKGPRLLMLYTSTLQPGIPSRFSGSGSGRDYSFSISNLEPEDIATYYCLQYDDLLWTFGGGTKLEIK
Take B1: the entries for the “Neutralizing activity_IC50” value in assay [1], in assay [2] and in assay [3] were 4.8 nM, 3 nM and 98 nM, respectively. The “EC50 (read off the curve)” value was roughly 10 ng/mL in assay [4], roughly 5 ng/mL in assay [5] and roughly 10 ng/mL in assay [6]. The koff in assay [7] turned out to be 0.00021 s⁻¹; in [8], 0.00014 s⁻¹. Besides, the kon in assay [7] and in [8] was 140000 M⁻¹ s⁻¹ throughout. For the same molecule, the results for the Kd in [9] and in assay [10] were roughly 1.5 nM and 1 nM, respectively.

B2: 25E4 antibody (antibody, IgG2b, V domains shown)
VH: QVALKESGPGILQPSQTLSLTCSFSGFSLSTSGMGVGWIRQPSGKGLEWLAHIWWHGNKYYSTALKSRLTISKDTSNNQVFLKIASVDTADTATYYCARISDGYPLDYWGQGTSVTVSS
VL: DIQMTQSPSSLSASLGGKVTITCKASQDINKYIVWYQQKPGKGPRLLIHYTSTLQPGFPSRFSGSGSGRDYSLSITNLEPEDIATYYCLQYDNLLWTFGGGTKLEIK
As to B2, the “Neutralizing activity_IC50” value in assay [1] was determined as 5.7 nM; in assay [2], 4.2 nM; in assay [11] it was 6.9 nM; in [3] it was 85 nM. Besides, the binding result in assay [12] is “no binding”. Besides, the “EC50 (read off the curve)” value in assay [13] was roughly 20 ng/mL; in assay [14] it was roughly 7 ng/mL; in assay [15] it was roughly 20 ng/mL; in assay [16] it was roughly 10 ng/mL. Besides, the koff in [7] came to 0.00016 s⁻¹; in [8], 9.4e-05 s⁻¹. Besides, the kon in [7] turned out to be 250000 M⁻¹ s⁻¹; in assay [8], 160000 M⁻¹ s⁻¹. Moreover, the results for the Kd in assay [9] and in [10] were 0.64 nM and 0.59 nM, respectively.

B3: 16A11 antibody (antibody, IgG1, V domains shown)
VH: QVTLKESGPGILQPSQTLSLTCSFSGFSLSTSGMGVGWVRQPSGKGLEWLAHIWWNDYYYYKTALKSRLTISKDTSNNQVFLKIASVDTVDTATYYCARMAPGTPFPSWGQGTLVTVSA
VL: B1 VL with A5T, H30N, T31R, M48I, L49H, D93I
As for B3, the “Neutralizing activity_IC50” value in assay [1] was 6.2 nM; in assay [2], 6.2 nM; in assay [11], 6.1 nM; in [3], 69 nM. Moreover, the binding result in assay [12] was “binds”. Moreover, the “EC50 (read off the curve)” value in assay [17] is roughly 20 ng/mL; in assay [18], roughly 40 ng/mL. Moreover, the koff in assay [7] came out at 0.00012 s⁻¹; in assay [8], 0.00039 s⁻¹. In addition, the kon came out at 120000 M⁻¹ s⁻¹ in [7] and 140000 M⁻¹ s⁻¹ in assay [8]. Further, the values for the Kd in assay [9] and in [10] were 1 nM and 2.8 nM, respectively.
